The results in this text go back to US20250382369A1 (UCL BUSINESS, published 2025).

Experiment [1] addresses T1, human 4Ig-B7-H3 expressed on transduced cells (human, UniProt Q5ZPR3 29-534).
T1 construct: also called isoform 1; Jurkat-B7H3
T1 sequence: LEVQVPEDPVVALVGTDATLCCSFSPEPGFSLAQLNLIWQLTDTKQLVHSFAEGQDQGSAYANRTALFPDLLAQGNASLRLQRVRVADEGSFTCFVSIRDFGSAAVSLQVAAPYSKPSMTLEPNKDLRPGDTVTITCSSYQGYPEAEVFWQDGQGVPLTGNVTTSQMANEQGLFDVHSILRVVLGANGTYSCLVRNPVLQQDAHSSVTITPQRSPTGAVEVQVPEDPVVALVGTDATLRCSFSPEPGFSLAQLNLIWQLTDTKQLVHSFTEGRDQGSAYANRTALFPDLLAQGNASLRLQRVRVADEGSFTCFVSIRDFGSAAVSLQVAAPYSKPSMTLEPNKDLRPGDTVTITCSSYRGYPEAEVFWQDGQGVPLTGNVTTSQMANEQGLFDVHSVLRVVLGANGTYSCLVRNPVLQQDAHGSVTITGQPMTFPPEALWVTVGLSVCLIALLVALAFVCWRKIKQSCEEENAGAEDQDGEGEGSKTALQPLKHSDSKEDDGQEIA
Nature of the experiment: flow cytometry, scFv-Fc on Jurkat cells transduced with B7-H3 isoforms (FIG. 2D). In general terms: A flow cytometer gives signals particle by particle.

In experiment [2] the target is T2, human B7H3 expressed on cell surface (human, UniProt Q5ZPR3 29-534).
T2 construct: whole, on cells; also called B7-H3 on LAN-1, Kelly, IMR-32 and other B7-H3 positive target cell lines
T2 sequence (looked up): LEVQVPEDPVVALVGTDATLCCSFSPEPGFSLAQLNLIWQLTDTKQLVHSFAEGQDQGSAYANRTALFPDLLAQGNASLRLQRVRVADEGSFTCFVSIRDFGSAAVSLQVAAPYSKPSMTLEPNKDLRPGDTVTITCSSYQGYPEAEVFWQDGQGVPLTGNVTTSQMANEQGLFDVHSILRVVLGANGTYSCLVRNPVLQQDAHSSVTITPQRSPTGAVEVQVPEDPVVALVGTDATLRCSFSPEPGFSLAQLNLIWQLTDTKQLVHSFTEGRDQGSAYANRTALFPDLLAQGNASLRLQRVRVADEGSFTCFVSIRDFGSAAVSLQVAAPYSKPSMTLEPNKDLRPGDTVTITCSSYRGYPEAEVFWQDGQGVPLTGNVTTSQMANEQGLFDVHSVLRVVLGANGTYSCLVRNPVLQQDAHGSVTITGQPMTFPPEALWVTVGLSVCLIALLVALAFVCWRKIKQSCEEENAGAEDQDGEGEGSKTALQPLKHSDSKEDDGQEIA
The experiment in a line: flow cytometry, chimeric IgG1 and anti-human secondary on neuroblastoma lines and B7-H3 positive Jurkat lines (FIG. 6). An excerpt: FIG. 6—Chimeric antibodies derived from TE9 and BH6 show specificity for human B7H3 expressed on cell surface. TE9 and BH6 ScFv that had been cloned into full human IgG1 antibodies were used in staining experiments. A. Chimeric human IgG1 full antibodies derived from TE9 and BH6 ScFvs were used to stain 3 neuroblastoma cell lines, LAN-1, Kelly and IMR-32. […] B. Chimeric antibodies TE9 and BH6 were used to stain the 3 B7-H3 positive Jurkat cell lines, 4Ig-B7-H3, 2Ig-B7-H3 and T-B7-H3 (see FIG. 2)

Experiment [3] has as its target T3, recombinant mouse B7-H3 (plate bound) (mouse, UniProt Q8VE98 29-244, limits assumed).
T3 sequence (looked up): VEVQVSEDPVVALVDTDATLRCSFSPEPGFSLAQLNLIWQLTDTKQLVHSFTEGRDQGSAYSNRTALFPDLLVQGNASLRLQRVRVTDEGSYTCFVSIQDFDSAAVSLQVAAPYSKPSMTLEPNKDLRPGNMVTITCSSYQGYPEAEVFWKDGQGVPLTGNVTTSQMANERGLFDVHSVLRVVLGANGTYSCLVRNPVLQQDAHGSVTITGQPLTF
Nature of the experiment: binding ELISA with immobilised recombinant protein (FIG. 28C). The method, then: (§1) TC6, TF9 and BH6 were produced as chimeric antibodies with a human IgG1 Fc domain. Antibodies were purified on protein A columns (Cytiva) and were tested in ELISA against plate bound antigen, with detection using goat anti-human IgG (H+L) (SeraCare). Cross reactivity against mouse B7-H3 was tested using flow cytometry against the mouse cell line 3T3/NA1.

Experiment [4] addresses T4, mouse B7-H3 on the mouse cell line 3T3/NA1 (mouse, UniProt Q8VE98 29-316).
T4 construct: whole, on cells
T4 sequence (looked up): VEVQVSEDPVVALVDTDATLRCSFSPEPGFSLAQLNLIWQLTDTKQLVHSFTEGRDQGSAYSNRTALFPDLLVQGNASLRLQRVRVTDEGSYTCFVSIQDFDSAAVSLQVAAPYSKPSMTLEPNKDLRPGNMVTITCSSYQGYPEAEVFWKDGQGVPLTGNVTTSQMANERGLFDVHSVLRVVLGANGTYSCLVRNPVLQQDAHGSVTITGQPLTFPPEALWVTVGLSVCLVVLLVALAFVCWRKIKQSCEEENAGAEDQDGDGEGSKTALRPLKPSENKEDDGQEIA
Nature of the experiment: flow cytometry on the mouse cell line 3T3/NA1 (FIG. 5A). The method, then: as §1

B1: TC6 scFv-Fc fusion protein (Fc fusion, not shown: a dimerising Fc or GST; small tags and cut ends)
scFv: QVKLQESGAELVKPGASVKLSCKASGYTFTSYWIHWVKQRPGQGLEWIGMIHPKSGSINYNEKFRSKATLTVDKSSSTAYMQLSRLTSEDSAVYFCASGGYGSSLDYWGQGTTVTVSSGGGGSGGGGSGGGGSQIVLTQSPAIMSASPGEKVTMTCSASSSVSYMYWYQQKPRSSPISWIYLTSNLASGVPARFSGSGSGTSYSLTISSMEAEDAATYYCQQWSSDPLTFGAGTKLELK
On to B1, for which, in experiment [1], the binding result is reported as “binds”.

B2: TF9 scFv-Fc fusion protein (Fc fusion)
scFv: QVKLQESGAELVKPGASVKLSCKASGYTFTSYWIHWVKQRPGQGLEWIGMIHPKSGSINYNEKFRSKATLTVDKSSSTAYMQLSRLTSEDSAVYFCASGGYGSSLDYWGQGTTVTVSSGGGGSGGGGSGGGGSENVLTQSPAIMSASPGEKVTISCSASSSVSYVYWYQQKPGSSPKPWIYRTSNLASGVPARFSGSGSGTSYSLTISSMEAEDAATYYCQQWSSNPLTFGAGTKLELK
notes: not shown: Fc of the scFv-Fc fusion, and any hinge or junction to it
On to B2, for which the binding result in experiment [1] was “binds”.

B3: TE9 scFv-Fc fusion protein (Fc fusion, not shown: a dimerising Fc or GST; small tags and cut ends)
scFv: QVQLQQSGAALVKPGTSVKLSCKASGYTFTSYWMHWVKQRPGQGLEWIGMIHPKSGSVDYNEKFTNKATLTGDKSSGTAYMQLSSLTSEDSAVYYCARGGYGSPFDYWGQGTTVTVSSGGGGSGGGGSGGGGSENVLTQSPAIMSASPGEKVTMTCSASSSVSYMYWYQQKPGSSPRLLIYRTSNLASGVPARFSGSGSGTSYSLTISSMEAEDAATYYCQQWSSNPPTFGGGTKLEIK
With B3, the binding result in experiment [1] is reported as “binds”.

B4: TE9 chimeric human IgG1 full antibody (antibody, V domains shown)
VH: QVQLQQSGAALVKPGTSVKLSCKASGYTFTSYWMHWVKQRPGQGLEWIGMIHPKSGSVDYNEKFTNKATLTGDKSSGTAYMQLSSLTSEDSAVYYCARGGYGSPFDYWGQGTTVTVSS
VL: ENVLTQSPAIMSASPGEKVTMTCSASSSVSYMYWYQQKPGSSPRLLIYRTSNLASGVPARFSGSGSGTSYSLTISSMEAEDAATYYCQQWSSNPPTFGGGTKLEIK
notes: Chimeric antibody, mouse variable domains cloned into full human IgG1; also called TE9 antibody; TE9 whole antibody
As to B4, the binding result is given as “binds” in experiment [2] and “no binding” in experiment [3].

B5: BH6 scFv-Fc fusion protein (Fc fusion, not shown: a dimerising Fc or GST; small tags and cut ends)
scFv: QVKLQQSGADLVKPGASVKLSCKASGYTFTSYWMHWVKQRPGQGLEWIGMIHPNSDGTNYNEKFKNRATLTVDKSSSTAYMQLNSLTSEDSAVYYCARWSYGMDSWGQGTTVTVSSGGGGSGGGGSGGGGSDIVLTQSPASLAVSLGQRATITCSASSSVSYMHWYQQKSGTSPKRWIYDTSKLASGVPARFSGSGSGTSYSLTISSMEAEDAATYYCQQWSRNPLTFGAGTKLEIK
As for B5, the binding result in experiment [1] is “binds”.

B6: BF9 scFv-Fc fusion protein (Fc fusion)
scFv: QVKLQQSGAELVKPGASVKLSCKASGYTFTSYWVHWVKQRPGQGLEWIGMIHPKSGSADYNEKFTTKATLTADKSSSTAYMQLSSLTSEDSAVYYCARGGYGSPFDYWGQGTTVTVSSGGGGSGGGGSGGGGSENVLTQSPAIMSASPGEKVTMTCSASSSVSYMYWYQQKPGSSPRLLIYDTSNLASGAPVRFSGRGSGTSYSLTISSMEAEDAATYYCQQWSNNPLTFGAGTKLELK
notes: as for B2
Take B6: the binding result in experiment [1] is “binds”.

B7: BH6 chimeric human IgG1 full antibody (antibody, V domains shown)
VH: QVKLQQSGADLVKPGASVKLSCKASGYTFTSYWMHWVKQRPGQGLEWIGMIHPNSDGTNYNEKFKNRATLTVDKSSSTAYMQLNSLTSEDSAVYYCARWSYGMDSWGQGTTVTVSS
VL: DIVLTQSPASLAVSLGQRATITCSASSSVSYMHWYQQKSGTSPKRWIYDTSKLASGVPARFSGSGSGTSYSLTISSMEAEDAATYYCQQWSRNPLTFGAGTKLEIK
notes: Chimeric antibody with a human IgG1 Fc domain; also called BH6 antibody
B7: the binding result in experiment [2] and in experiment [4] was “binds” throughout.
